Measurements reported in the supplement of paper PMC5998384.

Columns and labels:
[1] = test system: HeLa Kyoto; assay: solubility in G1/S (NP-40 vs SDS abundance) (log2 ratio); higher = more soluble; settings: cell cycle stage: G1/S
[2] = test system: HeLa Kyoto; assay: melting temperature (median over replicates), in situ; higher = more thermally stable
[3] = test system: HeLa Kyoto; assay: solubility change mitosis vs G1/S (difference of NP-40 vs SDS log2 ratios) (log2 ratio difference); higher = more soluble in mitosis
[4] = test system: HeLa Kyoto; assay: thermal stability score vs G1/S (z-score of summed log2 fold changes over temperatures); higher = more thermally stable than in G1/S
[5] = cell cycle stage: early G1 (4.5 h after nocodazole release)
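For melting temperature (median over replicates), in situ in this document: HeLa Kyoto cells synchronized by double thymidine or nocodazole block, proteins quantified by TMT10plex mass spectrometry, three independent biological replicates.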
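For solubility change mitosis vs G1/S (difference of NP-40 vs SDS log2 ratios) in this document: synchronized HeLa Kyoto cells (double thymidine block for G1/S, nocodazole release for mitosis), protein amounts in NP-40 versus SDS lysates quantified by mass spectrometry, three biological replicates.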
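For solubility in G1/S (NP-40 vs SDS abundance) in this document: HeLa Kyoto cells arrested at G1/S by double thymidine block, proteins quantified by TMT10plex mass spectrometry in mild NP-40 versus SDS extracts, three biological replicates.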
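For thermal stability score vs G1/S (z-score of summed log2 fold changes over temperatures) in this document: synchronized HeLa Kyoto cells, proteins quantified by TMT10plex mass spectrometry, three biological replicates, mitosis taken 0.5 h after nocodazole release, G1/S directly after double thymidine block.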

| Sequence | solubility in G1/S (log2) [1] | melting temperature ([2]; cell cycle stage: G1/S) | melting temperature ([2]; cell cycle stage: mitosis) | solubility change mitosis (log2) [3] | thermal stability score [4, 5] | thermal stability score ([4]; cell cycle stage: mitosis) |
| --- | --- | --- | --- | --- | --- | --- |
| MACPALGLEALQPLQPEPPPEPAFSEAQKWIEQVTGRSFGDKDFRTGLENGILLCELLNAIKPGLVKKINRLPTPIAGLDNIILFLRGCKELGLKESQLFDPSDLQDTSNRVTVKSLDYSRKLKNVLVTIYWLGKAANSCTSYSGTTLNLKEFEGLLAQMRKDTDDIESPKRSIRDSGYIDCWDSERSDSLSPPRHGRDDSFDSLDSFGSRSRQTPSPDVVLRGSSDGRGSDSESDLPHRKLPDVKKDDMSARRTSHGEPKSAVPFNQYLPNKSNQTAYVPAPLRKKKAEREEYRKSWSTATSPLGGERPFRYGPRTPVSDDAESTSMFDMRCEEEAAVQPHSRARQEQLQLINNQLREEDDKWQDDLARWKSRRRSVSQDLIKKEEERKKMEKLLAGEDGTSERRKSIKTYREIVQEKERRERELHEAYKNARSQEEAEGILQQYIERFTISEAVLERLEMPKILERSHSTEPNLSSFLNDPNPMKYLRQQSLPPPKFTATVETTIARASVLDTSMSAGSGSPSKTVTPKAVPMLTPKPYSQPKNSQDVLKTFKVDGKVSVNGETVHREEEKERECPTVAPAHSLTKSQMFEGVARVHGSPLELKQDNGSIEINIKKPNSVPQELAATTEKTEPNSQEDKNDGGKSRKGNIELASSEPQHFTTTVTRCSPTVAFVEFPSSPQLKNDVSEEKDQKKPENEMSGKVELVLSQKVVKPKSPEPEATLTFPFLDKMPEANQLHLPNLNSQVDSPSSEKSPVMTPQFKFWAWDPEEERRRQEKWQQEQERLLQERYQKEQDKLKEEWEKAQKEVEEEERRYYEEERKIIEDTVVPFTVSSSSADQLSTSSSMTEGSGTMNKIDLGNCQDEKQDRRWKKSFQGDDSDLLLKTRESDRLEEKGSLTEGALAHSGNPVSKGVHEDHQLDTEAGAPHCGTNPQLAQDPSQNQQTSNPTHSSEDVKPKTLPLDKSINHQIESPSERRKKSPREHFQAGPFSPCSPTPPGQSPNRSISGKKLCSSCGLPLGKGAAMIIETLNLYFHIQCFRCGICKGQLGDAVSGTDVRIRNGLLNCNDCYMRSRSAGQPTTL [LIMCH1] | 0.188 | 51.2 °C | 52 °C | -0.237 | 4.62 | 6.09 |
| MADAAPQLGKRKRELDVEEAHAASTEEKEAGVGNGTCAPVRLPFSGFRLQKVLRESARDKIIFLHGKVNEASGDGDGEDAVVILEKTPFQVEQVAQLLTGSPELQLQFSNDIYSTYHLFPPRQLNDVKTTVVYPATEKHLQKYLRQDLRLIRETGDDYRNITLPHLESQSLSIQWVYNILDKKAEADRIVFENPDPSDGFVLIPDLKWNQQQLDDLYLIAICHRRGIRSLRDLTPEHLPLLRNILHQGQEAILQRYRMKGDHLRVYLHYLPSYYHLHVHFTALGFEAPGSGVERAHLLAEVIENLECDPRHYQQRTLTFALRADDPLLKLLQEAQQS [DCPS] | 0.263 | 56.3 °C | 55.7 °C | -0.0249 | -0.562 | -3.36 |
| MADEALAGLDEGALRKLLEVTADLAERRRIRSAIRELQRQELEREEEALASKRFRAERQDNKENWLHSQQREAEQRAALARLAGQLESMNDVEELTALLRSAGEYEERKLIRAAIRRVRAQEIEAATLAGRLYSGRPNSGSREDSKGLAAHRLEQCEVPEREEQEQQAEVSKPTPTPEGTSQDVTTVTLLLRAPPGSTSSSPASPSSSPTPASPEPPLEPAEAQCLTAEVPGSPEPPPSPPKTTSPEPQESPTLPSTEGQVVNKLLSGPKETPAAQSPTRGPSDTKRADVAGPRPCQRSLSVLSPRQPAQNRESTPLASGPSSFQRAGSVRDRVHKFTSDSPMAARLQDGTPQAALSPLTPARLLGPSLTSTTPASSSSGSSSRGPSDTSSRFSKEQRGVAQPLAQLRSCPQEEGPRGRGLAARPLENRAGGPVARSEEPGAPLPVAVGTAEPGGSMKTTFTIEIKDGRGQASTGRVLLPTGNQRAELTLGLRAPPTLLSTSSGGKSTITRVNSPGTLARLGSVTHVTSFSHAPPSSRGGCSIKMEAEPAEPLAAAVEAANGAEQTRVNKAPEGRSPLSAEELMTIEDEGVLDKMLDQSTDFEERKLIRAALRELRQRKRDQRDKERERRLQEARGRPGEGRGNTATETTTRHSQRAADGSAVSTVTKTERLVHSNDGTRTARTTTVESSFVRRSENGSGSTMMQTKTFSSSSSSKKMGSIFDREDQASPRAGSLAALEKRQAEKKKELMKAQSLPKTSASQARKAMIEKLEKEGAAGSPGGPRAAVQRSTSFGVPNANSIKQMLLDWCRAKTRGYEHVDIQNFSSSWSDGMAFCALVHNFFPEAFDYGQLSPQNRRQNFEVAFSSAEMLVDCVPLVEVDDMMIMGKKPDPKCVFTYVQSLYNHLRRHELRLRGKNV [SMTN] | -0.058 | 48.9 °C | 50 °C | 0.208 | 0.326 | 0.869 |
| MADGEEPEKKRRRIEELLAEKMAVDGGCGDTGDWEGRWNHVKKFLERSGPFTHPDFEPSTESLQFLLDTCKVLVIGAGGLGCELLKNLALSGFRQIHVIDMDTIDVSNLNRQFLFRPKDIGRPKAEVAAEFLNDRVPNCNVVPHFNKIQDFNDTFYRQFHIIVCGLDSIIARRWINGMLISLLNYEDGVLDPSSIVPLIDGGTEGFKGNARVILPGMTACIECTLELYPPQVNFPMCTIASMPRLPEHCIEYVRMLQWPKEQPFGEGVPLDGDDPEHIQWIFQKSLERASQYNIRGVTYRLTQGVVKRIIPAVASTNAVIAAVCATEVFKIATSAYIPLNNYLVFNDVDGLYTYTFEAERKENCPACSQLPQNIQFSPSAKLQEVLDYLTNSASLQMKSPAITATLEGKNRTLYLQSVTSIEERTRPNLSKTLKELGLVDGQELAVADVTTPQTVLFKLHFTS [UBA3] | 0.115 | 51.8 °C | 51.5 °C | -0.178 | 1.23 | 1.76 |
| MADGKAGDEKPEKSQRAGAAGGPEEEAEKPVKTKTVSSSNGGESSSRSAEKRSAEEEAADLPTKPTKISKFGFAIGSQTTKKASAISIKLGSSKPKETVPTLAPKTLSVAAAFNEDEDSEPEEMPPEAKMRMKNIGRDTPTSAGPNSFNKGKHGFSDNQKLWERNIKSHLGNVHDQDN [PCNP] | 0.559 | 59.4 °C | 53.8 °C | 0.0732 | -1.76 | -6.06 |
